From the nanobody polyreactivity screen of Harvey et al. (2022)

Test: yeast display, Sf9 membrane polyspecificity reagent, FACS + sequencing; frameworks hold sequencing errors
Outline: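 After 36–48 hours of galactose induction, yeast (Saccharomyces cerevisiae BJ5465) displaying a synthetic nanobody library were stained at 4 °C for 1 hour with 10% biotinylated, detergent-solubilized Sf9 membrane reagent. Streptavidin microbeads enriched the stained cells before FACS sorting into low and high (top ~1%) gates on anti-HA and streptavidin fluorescence. Each clone's polyreactivity label reflects its gate of origin.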

Row | Sequence | polyreactivity (PSR sort gate)
1 | QVHLVESGGGLVQAGGSLRLSCAASGRTFWSYAMGWYRQAPGKERELVAAISWRSGTTYYADSVKGRFTISRDNAKNTVYLQMNSLKPEDTAVYYCNAHSNYRGDYWGQGTQVTVSS | high polyreactivity
2 | QVHLVESGGGLVQAGGSLRLSCAASGRTFWVYAMGWYRQAPGKERQLVAAINRRGGGTYYADSVKGRFTISRDNAKNTVYLQMNTLKPEDTAVYYCAAVSTRVRVNYDSWGQGTQVTVSS | high polyreactivity
3 | QVHLVESGGGLVQAGGSLRLSCAASGRTFYGNAMGWYRQATGKERELVAAINRDGGTYYADSVKGRFTISRDNAKNTVYLQMNSLKTEDTAVYYCNAVKRGIRYGYWGQGTQVTVSS | high polyreactivity
4 | QVHLVESGGGLVQAGGSLRLSCAASGRTFYSYAMGWYRQAHGKERELVAAINTSGGRKHYADSVKGRFTISRDNAKNTVYLQMNSLKPEDTAVYYCAARYLGGRLSGDYSRYYWGQGTQVTVSS | high polyreactivity
5 | QVHLVESGGGLVQAGGSLRLSCAASGRTFYVYAMGWYIQAPGKERELVATITSRGGRTYYADSVKGRFTISRDNAKNTVYLQMNSLKPEDTAVYYCNAAWWKVSYVRQKYYYWGQGTQVTVSS | high polyreactivity
6 | QVHLVESGGGLVQAGGSLRLSCAASGRTIVGYDMGWYRQAPGKEMELVAAISSRGGSTYYADSVKGRFTISRDNAKNTVYLQRNSLKPEDTAVYYCAALWYVGYGPVDYWGQGTQVTVSS | high polyreactivity
7 | QVHLVESGGGLVQAGGSLRLSCAASGRTLGGYAMGWYRQAPGKERELVAVITWNGGSTYADSVKGRFTISRDNAKNTVYLQRNSLKPEDTAVYYCAVYIPRGGRSGYWGQGTQVTVSS | high polyreactivity
8 | QVHLVESGGGLVQAGGSLRLSCAASGRTLYCYAMGWYRQAPGKERELVASIRSGGSTNYADSVKGRFTISRDNAKNTVYLQMNSLKPEVTAVYYCNTGSRLDRVDSWGQGTQVTVSS | low polyreactivity
9 | QVHLVESGGGLVQAGGSLRLSCAASGRTYGVNAMGRYRQAPGKEREFVAAISKRGGSTYYADSVKGRFTISRDNAKNTVYLQMNSLKPEDTAGYYCAADYTTHYWGQGTQVTVSS | high polyreactivity
10 | QVHLVESGGGLVQAGGSLRLSCAASGSIFAINAMGWYRQAPGKERELVARISWSGGRTYYADSVKGRFTISRDNAKNTVYLQMNSLKPEDTAVYYCAKRYYKSLNRDEFDSWGQGTQVTVSS | high polyreactivity
11 | QVHLVESGGGLVQAGGSLRLSCAASGSIFAWYGMGWYRQAPGKERELVAAISTAGSTNYADSVKGRFTISRDNAKNTVYLQMNSLKPEDTAVYYCAADWGGLWFWYEYWGQCTQVTVSS | low polyreactivity
12 | QVHLVESGGGLVQAGGSLRLSCAASGSIFDEYAMGWYRQAPGKERELVAAITSGGSTNYADSVKGRFTISRDNAKNTVYLQMNSLKPEDTAVYYCNVARQAKGMGYWGQGTEVTVSS | low polyreactivity
13 | QVHLVESGGGLVQAGGSLRLSCAASGSIFEINAMGWYRQAPGKEWELVAAITGSGGSTHYADSVKGRFTISRDNAKNTVYLPMNSLNPEDTAVYYCAAVPRYQYGYWGQGTQVTVSS | low polyreactivity
14 | QVHLVESGGGLVQAGGSLRLSCAASGSIFNENAMGWYRQAPGKERELVATISRRGGSTYYADSVKGRFTISRDNAKNTVYLQMNSLKPEDTAVYYCARDIFWVVYWGQGTQVTVSS | high polyreactivity
15 | QVHLVESGGGLVQAGGSLRLSCAASGSIFRKYAMGWYRQAPGKERELLAAISVSGGSTYYADSVKGRFTISRDNAKNTVYLQMNSLNPEDTAVYYCAADSGPFNRYAPRGYWGQGTQVTVSS | low polyreactivity
16 | QVHLVESGGGLVQAGGSLRLSCAASGSIFSYYAMGWYRQAPGKERELVASITYSGGSTYYADSVKGRFTISRDNAKNTVYLQMNSLKPEDTAVYYCNTDWRTSVGYDYWGQGTQVTVSS | low polyreactivity
17 | QVHLVESGGGLVQAGGSLRLSCAASGSIFTSYAMGWYRQAPGKERELVAAITSGGSTNYADSVKGRFTISRDNAKNTVFLKMNSLKPEDTAVDYCAKDRPGQLRWWFLYGYWGQGTQVTVSS | low polyreactivity
18 | QVHLVESGGGLVQAGGSLRLSCAASGSIFYDYAMVWYIQAPGKERELVAAINSGDSTYYADSVKGRFTISRDNAKNTVYLQMNSLKPEDTAVYFCAATYFSPYIEYDYWGQGTQVTVSS | low polyreactivity
19 | QVHLVESGGGLVQAGGSLRLSCAASGSIYPYTMGWYRQAPGKERELVAGITRSGGRTYYADSVKGRFTISRDNAKNTVYLQMNSLKPEDTAVYYCAAGTTAWYWSEYYYWGQGTQVTVSS | high polyreactivity
20 | QVHLVESGGGLVQAGGSLRLSCAASGSNFDINAMGWYRQAPGKERELVAVITDSGSTYYADSVKGRFTISRDNAKNTVYLQMNRLKPEDTAVYYSAADQVVAGLLTPEYDYWGQGTQVTVSS | low polyreactivity
21 | QVHLVESGGGLVQAGGSLRLSCAASGSNFYWNAMGWYRQAPGKESELFAAISSGGRTYYADSLKGRFTISRDNAKNTVYLQLNSLKREDTAFYYCNAAGWIFPSFSPMDYWGQGTQVTVSS | low polyreactivity
22 | QVHLVESGGGLVQAGGSLRLSCAASGSTFDDNTMGWYRQAPGKERELVAAISSDSSTNYADSVKGRFTISRDNAKNTVYLQMNSLKPEDTAVYSCATRSRTTKIVRWPGMYYWGQGTQVTVSS | high polyreactivity

Row | Sequence | polyreactivity (PSR sort gate)
23 | QVHLVESGGGLVQAGGSLRLSCAASGSTFGLNAMGWYRQAPGKERELVAAITRSDITNYADSVKGRFTISRDNAKNTVYLQMNSLKPEDTAVYYCNKTPDRHRRYFGYGYWGQGTQVTVSS | low polyreactivity
24 | QVHLVESGGGLVQAGGSLRLSCAASGSTFGYYAMGWYRQAPGKERELVAAIRYSGGTTYYADSVKGRFTISRDNAKNTVYLQMNSLKPEDTAVYYCAAVYTSGYYYWGQGTQVTVSS | high polyreactivity
25 | QVHLVESGGGLVQAGGSLRLSCAASGSTFHKYALGWYRQAPGKEREYVAAISWSGGSTYYADSVKGRFTISRDNAKYTVYLQMNSLKPEDTAVYFCAARGNRYAYPRKYDYWGQGTQVTVSS | high polyreactivity
26 | QVHLVESGGGLVQAGGSLRLSCAASGSTFIYYGMGWYRHAPGKERELVATISSGGSTNYADSVKGRFTISRDNAKNTVYLQMNSLKPEDTAVYYCAVAPYYYGLLWNTFYEYYYWGQGTQVTVSS | high polyreactivity
27 | QVHLVESGGGLVQAGGSLRLSCAASGSTFPYYAMGWYRQAPGKEREWVAAITSSASTYFADSVKGRFTISRDNAKNTVYLQMNSLKPEDTAVYYCAVRSPYRLSSWRVGYWGQGTQVTVSS | high polyreactivity
28 | QVHLVESGGGLVQAGGSLRLSCAASGSTFRGYGMGWYRQAPGKERELVAAISWRAASTYYADSVKGRFTISRDNAKNTVYLQMNSLKPEDTAVYYCAARYSFSSSTRYYYWGQGTQVTVSS | high polyreactivity
29 | QVHLVESGGGLVQAGGSLRLSCAASGSTFRLYALGWYRQAPGKERELVAVISRSGGRTYADSVKGRFTISRDNAKNTVYLQMNSLKPVDTAVYYCAKARHKSPTYTHDSWGQGTQVTVSS | high polyreactivity
30 | QVHLVESGGGLVQAGGSLRLSCAASGSTFRRNAMGWYRQAPGKERELVASITSGGSTYYADSVKGRFTITRDNAKNTVYLQMNSLKPEDTGVYYCAVVWRGGYRWPYEYWGQGTQVTVSS | low polyreactivity
31 | QVHLVESGGGLVQAGGSLRLSCAASGSTFSWYDMGWYRQAPGKERELVAAISTTGSTYYADSVKGRFTISRDNAKNTVYLQMNSLKPEDTAVYYCAADYISIAWYRLFYDYDYWGQGTQVTVSS | high polyreactivity
32 | QVHLVESGGGLVQAGGSLRLSCAASGSTFTLNAMGWYRQAPGKERELVAAITWDGGSTYYADSVKGRFTISRDNAKNTVYLQMNSLKPEDTAVYFCAADREFWWEVVYTYEYYYWGQGTQVTVSS | low polyreactivity
33 | QVHLVESGGGLVQAGGSLRLSCAASGSTFYANLMGWYRQAPGKESELVAAIDGSGGRTYYADSVKGRFTISRDNAKNTVYLQMNSLKPEDTAVYYCAKKRIVPVIQFGRDYNYWGQGTQVTVSS | high polyreactivity
34 | QVHLVESGGGLVQAGGSLRLSCAASGSTFYRYAMGWYSQAPGKERELVAAISKRGGSTYYADSVKGRFTISRDNAKNTVYLQMNSLKPEDTAGQYCAADPFDYGGGDDYWGQGTQVTVSS | high polyreactivity
35 | QVHLVESGGGLVQAGGSLRLSCAASGSTIRRYAMGWYRQAPGTERELVASITNRGGSTYYADSVKGLFTISRDNAKNTFYLQMNSLKPEDTAVYYCAKKGVYGPLNEYWGQGTQVTVSS | high polyreactivity
36 | QVHLVESGGGLVQAGGSLRLSCAASGSTLYWYAMGWYRQAPGKERELVARITVSGGSTSYADSVKGRFTISRDNAKNTVYLQMNSLKPEDTAVYYCAARRYWTGYYYWGQGTQVTVSS | high polyreactivity
37 | QVHLVESGGGLVQAGGSLRLSCAASGSTSRKYTMGWYRQAPGKERELVATISWSGGSTNYADSVKGRFTISRDNAKNTVYLQMNSLKPEETAVYYCKAYVSPRYRGSRYYYWGQGTQVTVSS | high polyreactivity
38 | QVHLVESGGGLVQAGGSLRLSCAASGSTVTLYAMGWYRQAPGKERELVASITWSGSTYADSVKGRFTISRDNAKNTVYLQMNSLKPEDTAVYYCNTDPRSVVGWYDYWGQGTQVTVSS | low polyreactivity
39 | QVHLVESGGGLVQAGGSLRLSCAASGTIYYVYSMVWYRQAPGKERELVASINKSGGSTYYADSVKWRFTISRDNAKNTVYLQMNSLKREDTAVYYCAARTGWPRVGFQYPAHVGFDYWGQGTQVTVSS | low polyreactivity
40 | QVHLVESGGGLVQAGGSLRLSCAASGYVMGWYRQAPGKERELVAAITRGTSTYYADSVKGRFTISRDNAKNTVYLQMNSLKPEDTAVYYCAARTTSGEWPPGNIGTYLYDYWGQGTQVTVSS | low polyreactivity
41 | QVHLVESGGGLVQAGGSLRLSCAAYGRIFTLNAMGWDRQAPGKERGWVARISRTGGSTYYADSVKGRFTISRDNAKNTVYLQMNSLKPEDTAVYYCAAAGFSRQPGAGAYYYWGQCTQVTVSS | high polyreactivity
42 | QVHLVESGGGLVQAGGSLRLSCADCGFTLYGNAMGWYRQAPGKVRELVAAITKSGGRTYYADSVKGRFTISRDNAKNTVYLQMNSLKPEDTAVYYCAVRAKSRYDYWGQGTQVTVSS | high polyreactivity
43 | QVHLVESGGGLVQAGGSLRLSCADSGFTFRRYTMGWYRQAPGKERELVAVISASGGSTYYADSVKGRFTISRDNAKNTVYLQMNSLKPEDTAVYYCNTRAVVIGGDYWGQGTQVTVSS | high polyreactivity
